Laboratory results: the array DNA melting data of Ke et al.

Experiment: melting temperature; melt of duplexes
Conditions: sodium 0.0675 M; strand 1 µM

Substance | Tm
CGACGTGCAGTATGTGCTG+CAGCACATTGTGCACGTCG (((((((((..((((((((+))))))))..))))))))) | 48.6 °C
CGACGTGCCTCATGTGCTG+CAGCACATAGCGCACGTCG ((((((((...((((((((+))))))))...)))))))) | 49.6 °C
CGACGTGCCGCATGTGCTG+CAGCACATAGCGCACGTCG ((((((((...((((((((+))))))))...)))))))) | 53.9 °C
CGACGTGCTAGATGTGCTG+CAGCACATCGGGCACGTCG ((((((((..(((((((((+)))))))))..)))))))) | 57 °C
CGACGTGCGGTATGTGCTG+CAGCACATGATGCACGTCG ((((((((...((((((((+))))))))...)))))))) | 52.2 °C
CGACGTGCGAGATGTGCTG+CAGCACATCATGCACGTCG ((((((((..(((((((((+)))))))))..)))))))) | 56.7 °C
CGACGTGCCATATGTGCTG+CAGCACATGACGCACGTCG ((((((((...((((((((+))))))))...)))))))) | 45.5 °C
CGACGTGCTTTATGTGCTG+CAGCACATTTCGCACGTCG ((((((((...((((((((+))))))))...)))))))) | 47.7 °C
CGACGTGCGATATGTGCTG+CAGCACATTCCGCACGTCG (((((((((..((((((((+))))))))..))))))))) | 53.8 °C
CGACGTGCCTGATGTGCTG+CAGCACATTCGGCACGTCG (((((((((..((((((((+))))))))..))))))))) | 54.7 °C
CGACGTGCCTAATGTGCTG+CAGCACATTTCGCACGTCG ((((((((..(((((((((+)))))))))..)))))))) | 50.5 °C
CGACGTGCCAAATGTGCTG+CAGCACATGATGCACGTCG ((((((((...((((((((+))))))))...)))))))) | 50.3 °C
CGACGTGCCAAATGTGCTG+CAGCACATGAGGCACGTCG (((((((((..((((((((+))))))))..))))))))) | 57.3 °C
CGACGTGCTAAATGTGCTG+CAGCACATACAGCACGTCG (((((((((..((((((((+))))))))..))))))))) | 51.9 °C
CGACGTGCGACATGTGCTG+CAGCACATACTGCACGTCG ((((((((...((((((((+))))))))...)))))))) | 49.9 °C
CGACGTGCTTTATGTGCTG+CAGCACATACTGCACGTCG ((((((((..(((((((((+)))))))))..)))))))) | 50.3 °C
CGACGTGCTTAATGTGCTG+CAGCACATTCAGCACGTCG (((((((((.(((((((((+))))))))).))))))))) | 55.5 °C
CGACGTGCATTATGTGCTG+CAGCACATGAGGCACGTCG ((((((((.(.((((((((+)))))))).).)))))))) | 54 °C
CGACGTGCTTAATGTGCTG+CAGCACATTTAGCACGTCG (((((((((.(((((((((+))))))))).))))))))) | 55.5 °C
CGACGTGCTGGATGTGCTG+CAGCACATGTCGCACGTCG ((((((((...((((((((+))))))))...)))))))) | 50.3 °C
CGACGTGCGGCATGTGCTG+CAGCACATGTGGCACGTCG ((((((((..(((((((((+)))))))))..)))))))) | 56.8 °C
CGACGTGCTACATGTGCTG+CAGCACATCCTGCACGTCG ((((((((...((((((((+))))))))...)))))))) | 48.3 °C
CGACGTGCGCCATGTGCTG+CAGCACATACGGCACGTCG ((((((((...((((((((+))))))))...)))))))) | 46.6 °C
CGACGTGCGTTATGTGCTG+CAGCACATGAGGCACGTCG ((((((((.(.((((((((+)))))))).).)))))))) | 54.1 °C

Substance | Tm
CGACGTGCTCAATGTGCTG+CAGCACATGAAGCACGTCG (((((((((..((((((((+))))))))..))))))))) | 53.6 °C
CGACGTGCGCTATGTGCTG+CAGCACATTTTGCACGTCG ((((((((...((((((((+))))))))...)))))))) | 48.3 °C
CGACGTGCGCTATGTGCTG+CAGCACATCCAGCACGTCG ((((((((...((((((((+))))))))...)))))))) | 49.8 °C
CGACGTGCCAGATGTGCTG+CAGCACATGGGGCACGTCG (((((((((..((((((((+))))))))..))))))))) | 56.3 °C
CGACGTGCCTTATGTGCTG+CAGCACATGGTGCACGTCG ((((((((...((((((((+))))))))...)))))))) | 46 °C
CGACGTGCCTTATGTGCTG+CAGCACATGCCGCACGTCG ((((((((...((((((((+))))))))...)))))))) | 46.9 °C
CGACGTGCGAAATGTGCTG+CAGCACATCGTGCACGTCG ((((((((...((((((((+))))))))...)))))))) | 44.7 °C
CGACGTGCAGAATGTGCTG+CAGCACATCCAGCACGTCG ((((((((.(.((((((((+)))))))).).)))))))) | 51.6 °C
CGACGTGCACCATGTGCTG+CAGCACATCGAGCACGTCG ((((((((.(.((((((((+)))))))).).)))))))) | 45.7 °C
CGACGTGCTATATGTGCTG+CAGCACATCCGGCACGTCG ((((((((...((((((((+))))))))...)))))))) | 49 °C
CGACGTGCATTATGTGCTG+CAGCACATTGAGCACGTCG ((((((((...((((((((+))))))))...)))))))) | 49.5 °C
CGACGTGCTATATGTGCTG+CAGCACATTAGGCACGTCG ((((((((...((((((((+))))))))...)))))))) | 51.4 °C
CGACGTGCAGAATGTGCTG+CAGCACATGATGCACGTCG (((((((((..((((((((+))))))))..))))))))) | 57.9 °C
CGACGTGCTGCATGTGCTG+CAGCACATTAGGCACGTCG ((((((((...((((((((+))))))))...)))))))) | 50.4 °C
CGACGTGCAGAATGTGCTG+CAGCACATAAGGCACGTCG ((((((((...((((((((+))))))))...)))))))) | 51 °C
CGACGTGCCAAATGTGCTG+CAGCACATGCAGCACGTCG ((((((((...((((((((+))))))))...)))))))) | 52.7 °C
CGACGTGCTCGATGTGCTG+CAGCACATTGGGCACGTCG ((((((((.(.((((((((+)))))))).).)))))))) | 55.7 °C
CGACGTGCATGATGTGCTG+CAGCACATCAAGCACGTCG ((((((((.((((((((((+)))))))))).)))))))) | 56.5 °C
CGACGTGCCTAATGTGCTG+CAGCACATGGCGCACGTCG ((((((((...((((((((+))))))))...)))))))) | 51.1 °C
CGACGTGCTATATGTGCTG+CAGCACATTCAGCACGTCG (((((((((..((((((((+))))))))..))))))))) | 51 °C
CGACGTGCCGTATGTGCTG+CAGCACATTATGCACGTCG ((((((((...((((((((+))))))))...)))))))) | 48.6 °C
CGACGTGCACCATGTGCTG+CAGCACATGTAGCACGTCG ((((((((..(((((((((+)))))))))..)))))))) | 50.9 °C
CGACGTGCCTGATGTGCTG+CAGCACATTTTGCACGTCG ((((((((...((((((((+))))))))...)))))))) | 48.8 °C
CGACGTGCACCATGTGCTG+CAGCACATCCTGCACGTCG (((((((((..((((((((+))))))))..))))))))) | 44.7 °C

Substance | Tm
CGACGTGCACCATGTGCTG+CAGCACATGAGGCACGTCG ((((((((..(((((((((+)))))))))..)))))))) | 53.9 °C
CGACGTGCTTCATGTGCTG+CAGCACATAATGCACGTCG ((((((((.(.((((((((+)))))))).).)))))))) | 50.4 °C
CGACGTGCAATATGTGCTG+CAGCACATGAGGCACGTCG ((((((((...((((((((+))))))))...)))))))) | 51.3 °C
CGACGTGCAAGATGTGCTG+CAGCACATTTTGCACGTCG ((((((((((.((((((((+)))))))).)))))))))) | 57.3 °C
CGACGTGCGGAATGTGCTG+CAGCACATTGTGCACGTCG ((((((((..(((((((((+)))))))))..)))))))) | 53.9 °C
CGACGTGCTGCATGTGCTG+CAGCACATCGAGCACGTCG (((((((((..((((((((+))))))))..))))))))) | 52.5 °C
CGACGTGCGGAATGTGCTG+CAGCACATGCAGCACGTCG ((((((((.(.((((((((+)))))))).).)))))))) | 59.9 °C
CGACGTGCCGAATGTGCTG+CAGCACATAAGGCACGTCG (((((((((..((((((((+))))))))..))))))))) | 58 °C
CGACGTGCGTCATGTGCTG+CAGCACATTAAGCACGTCG ((((((((.(.((((((((+)))))))).).)))))))) | 53.3 °C
CGACGTGCACCATGTGCTG+CAGCACATTAAGCACGTCG ((((((((...((((((((+))))))))...)))))))) | 43.9 °C
CGACGTGCTGAATGTGCTG+CAGCACATTCAGCACGTCG (((((((((((((((((((+))))))))))))))))))) | 64.4 °C
CGACGTGCCCGATGTGCTG+CAGCACATAGGGCACGTCG ((((((((((.((((((((+)))))))).)))))))))) | 61.5 °C
CGACGTGCGACATGTGCTG+CAGCACATAACGCACGTCG (((((((((..((((((((+))))))))..))))))))) | 54.2 °C
CGACGTGCTTGATGTGCTG+CAGCACATCGCGCACGTCG ((((((((..(((((((((+)))))))))..)))))))) | 54.3 °C
CGACGTGCACTATGTGCTG+CAGCACATCTTGCACGTCG (((((((((..((((((((+))))))))..))))))))) | 46.5 °C
CGACGTGCATAATGTGCTG+CAGCACATCACGCACGTCG ((((((((.(.((((((((+)))))))).).)))))))) | 47.6 °C
CGACGTGCGGGATGTGCTG+CAGCACATCCGGCACGTCG ((((((((.((((((((((+)))))))))).)))))))) | 61.6 °C
CGACGTGCGGGATGTGCTG+CAGCACATCGAGCACGTCG ((((((((..(((((((((+)))))))))..)))))))) | 58.1 °C
CGACGTGCTTCATGTGCTG+CAGCACATTTGGCACGTCG ((((((((...((((((((+))))))))...)))))))) | 48.6 °C
CGACGTGCTGTATGTGCTG+CAGCACATGTTGCACGTCG ((((((((...((((((((+))))))))...)))))))) | 50.4 °C
CGACGTGCTCTATGTGCTG+CAGCACATAAGGCACGTCG ((((((((..(((((((((+)))))))))..)))))))) | 52.2 °C
CGACGTGCGGGATGTGCTG+CAGCACATGCGGCACGTCG ((((((((.(.((((((((+)))))))).).)))))))) | 55.4 °C
CGACGTGCCAGATGTGCTG+CAGCACATGCAGCACGTCG ((((((((...((((((((+))))))))...)))))))) | 51.2 °C
CGACGTGCGGGATGTGCTG+CAGCACATCTGGCACGTCG ((((((((..(((((((((+)))))))))..)))))))) | 57.1 °C
